B1: Flag-tagged IKKβ (full length) (protein)
chain: MSWSPSLTTQTCGAWEMKERLGTGGFGNVIRWHNQETGEQIAIKQCRQELSPRNRERWCLEIQIMRRLTHPNVVAARDVPEGMQNLAPNDLPLLAMEYCQGGDLRKYLNQFENCCGLREGAILTLLSDIASALRYLHENRIIHRDLKPENIVLQQGEQRLIHKIIDLGYAKELDQGSLCTSFVGTLQYLAPELLEQQKYTVTVDYWSFGTLAFECITGFRPFLPNWQPVQWHSKVRQKSEVDIVVSEDLNGTVKFSSSLPYPNNLNSVLAERLEKWLQLMLMWHPRQRGTDPTYGPNGCFKALDDILNLKLVHILNMVTGTIHTYPVTEDESLQSLKARIQQDTGIPEEDQELLQEAGLALIPDKPATQCISDGKLNEGHTLDMDLVFLFDNSKITYETQISPRPQPESVSCILQEPKRNLAFFQLRKVWGQVWHSIQTLKEDCNRLQQGQRAAMMNLLRNNSCLSKMKNSMASMSQQLKAKLDFFKTSIQIDLEKYSEQTEFGITSDKLLLAWREMEQAVELCGRENEVKLLVERMMALQTDIVDLQRSPMGRKQGGTLDDLEEQARELYRRLREKPRDQRTEGDSQEMVRLLLQAIQSFEKKVRVIYTQLSKTVVCKQKALELLPKVEEVVSLMNEDEKTVVRLQEKRQKELWNLLKIACSKVRGPVSGSPDSMNASRLSQPGQLMSQPSTASNSLPEPAKKSEELVAEAHNLCTLLENAIQDTVREQDQSFTALDWSWLQTEEEEHSCLEQAS
B2: Flag-tagged IKKα (protein)
chain: MERPPGLRPGAGGPWEMRERLGTGGFGNVCLYQHRELDLKIAIKSCRLELSTKNRERWCHEIQIMKKLNHANVVKACDVPEELNILIHDVPLLAMEYCSGGDLRKLLNKPENCCGLKESQILSLLSDIGSGIRYLHENKIIHRDLKPENIVLQDVGGKIIHKIIDLGYAKDVDQGSLCTSFVGTLQYLAPELFENKPYTATVDYWSFGTMVFECIAGYRPFLHHLQPFTWHEKIKKKDPKCIFACEEMSGEVRFSSHLPQPNSLCSLVVEPMENWLQLMLNWDPQQRGGPVDLTLKQPRCFVLMDHILNLKIVHILNMTSAKIISFLLPPDESLHSLQSRIERETGINTGSQELLSETGISLDPRKPASQCVLDGVRGCDSYMVYLFDKSKTVYEGPFASRSLSDCVNYIVQDSKIQLPIIQLRKVWAEAVHYVSGLKEDYSRLFQGQRAAMLSLLRYNANLTKMKNTLISASQQLKAKLEFFHKSIQLDLERYSEQMTYGISSEKMLKAWKEMEEKAIHYAEVGVIGYLEDQIMSLHAEIMELQKSPYGRRQGDLMESLEQRAIDLYKQLKHRPSDHSYSDSTEMVKIIVHTVQSQDRVLKELFGHLSKLLGCKQKIIDLLPKVEVALSNIKEADNTVMFMQGKRQKEIWHLLKIACTQSSARSLVGSSLEGAVTPQTSAWLPPTSAEHDHSLSCVVTPQDGETSAQMIEENLNCLGHLSTIIHEANEEQGNSMMNLDWSWLTE

Assays:
[1] = molecular target: T1, NLRC5-D3, containing the link region and LRR-R2 (aa 900-1329)
T1 chain: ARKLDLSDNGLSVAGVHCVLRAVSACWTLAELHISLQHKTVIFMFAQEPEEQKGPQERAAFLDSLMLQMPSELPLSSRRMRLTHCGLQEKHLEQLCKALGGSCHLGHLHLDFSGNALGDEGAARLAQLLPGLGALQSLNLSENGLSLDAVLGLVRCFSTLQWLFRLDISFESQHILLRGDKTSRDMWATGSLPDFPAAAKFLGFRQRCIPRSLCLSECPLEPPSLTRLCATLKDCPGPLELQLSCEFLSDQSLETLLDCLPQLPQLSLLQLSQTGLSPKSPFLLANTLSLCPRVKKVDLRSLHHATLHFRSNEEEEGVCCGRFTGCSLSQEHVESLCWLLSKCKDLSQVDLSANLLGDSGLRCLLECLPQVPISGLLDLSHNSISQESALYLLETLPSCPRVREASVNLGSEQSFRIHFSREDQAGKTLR

[2] = molecular target: T2, NLRC5-D4, containing the CARD domain and LRR-R3 (aa 1-215 plus 1471-1866)
T2 chain: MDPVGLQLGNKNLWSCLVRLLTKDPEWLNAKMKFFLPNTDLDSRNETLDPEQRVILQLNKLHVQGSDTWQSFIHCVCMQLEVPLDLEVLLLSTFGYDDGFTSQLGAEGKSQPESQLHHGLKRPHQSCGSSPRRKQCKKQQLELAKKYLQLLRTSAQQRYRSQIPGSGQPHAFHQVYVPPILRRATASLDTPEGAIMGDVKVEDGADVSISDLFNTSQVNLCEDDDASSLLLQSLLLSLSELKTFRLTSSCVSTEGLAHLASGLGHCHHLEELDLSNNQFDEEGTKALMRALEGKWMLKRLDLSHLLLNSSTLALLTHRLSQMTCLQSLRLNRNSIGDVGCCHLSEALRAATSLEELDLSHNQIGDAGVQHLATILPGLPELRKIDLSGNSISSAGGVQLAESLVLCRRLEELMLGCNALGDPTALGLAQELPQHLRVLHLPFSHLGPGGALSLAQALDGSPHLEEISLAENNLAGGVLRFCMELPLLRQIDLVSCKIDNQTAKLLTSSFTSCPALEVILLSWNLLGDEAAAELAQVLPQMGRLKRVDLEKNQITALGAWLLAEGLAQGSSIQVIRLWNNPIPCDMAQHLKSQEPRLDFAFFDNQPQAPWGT

[3] = molecular target: T3, NLRC5-D1, containing the CARD and NOD domains (aa 1-517)
T3 chain: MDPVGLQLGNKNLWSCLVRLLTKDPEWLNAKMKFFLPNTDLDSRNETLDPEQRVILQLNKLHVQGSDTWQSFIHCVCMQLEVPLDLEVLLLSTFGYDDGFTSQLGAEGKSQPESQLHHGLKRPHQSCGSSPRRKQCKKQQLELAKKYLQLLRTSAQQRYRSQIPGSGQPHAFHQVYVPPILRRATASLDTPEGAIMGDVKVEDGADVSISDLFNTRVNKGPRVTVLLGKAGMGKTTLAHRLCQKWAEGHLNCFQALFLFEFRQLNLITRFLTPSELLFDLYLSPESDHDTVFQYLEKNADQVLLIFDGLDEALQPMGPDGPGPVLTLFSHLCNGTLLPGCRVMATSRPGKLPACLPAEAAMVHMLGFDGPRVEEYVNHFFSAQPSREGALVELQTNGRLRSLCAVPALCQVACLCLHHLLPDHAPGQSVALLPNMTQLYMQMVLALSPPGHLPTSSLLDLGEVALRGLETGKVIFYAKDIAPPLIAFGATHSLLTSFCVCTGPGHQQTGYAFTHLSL

[4] = molecular target: T4, NLRC5-D2, containing the LRR-R1 (aa 651-898)
T4 chain: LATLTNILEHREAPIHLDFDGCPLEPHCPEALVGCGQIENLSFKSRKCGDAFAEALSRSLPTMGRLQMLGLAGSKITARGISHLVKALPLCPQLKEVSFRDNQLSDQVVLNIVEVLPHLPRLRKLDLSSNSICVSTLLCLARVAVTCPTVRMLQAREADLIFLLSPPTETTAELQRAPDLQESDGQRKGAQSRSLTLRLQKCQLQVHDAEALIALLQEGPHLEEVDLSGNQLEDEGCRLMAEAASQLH

Row | Protein | phosphorylation of IKKβ [1] | phosphorylation of IKKβ [2] | phosphorylation of IKKβ [3] | phosphorylation of IKKβ [4] | phosphorylation of IKKα [1] | phosphorylation of IKKα [2] | phosphorylation of IKKα [3] | phosphorylation of IKKα [4]
1 | B1 | NLRC5-D3 strongly inhibited IKKα and IKKβ phosphorylation | NLRC5-D1, -D2 and -D4 produced little or only slight inhibition | NLRC5-D1, -D2 and -D4 produced little or only slight inhibition | NLRC5-D1, -D2 and -D4 produced little or only slight inhibition | – | – | – | –
2 | B2 | – | – | – | – | NLRC5-D3 strongly inhibited IKKα and IKKβ phosphorylation | NLRC5-D1, -D2 and -D4 produced little or only slight inhibition | NLRC5-D1, -D2 and -D4 produced little or only slight inhibition | NLRC5-D1, -D2 and -D4 produced little or only slight inhibition

— US20110229560
